Here are results for three substances from PMC3016346.

Experiment in all cases: two-hybrid; Matchmaker Gal4 system 3 in AH109; beta-galactosidase solution assay with ONPG on lysed cells from liquid culture; activity as percent of p53-TAg (100%); mean of at least three experiments
In test [1] the target is SeMV MP NΔ49 deletion mutant, Gal4 DNA-binding domain fusion (pGBKT7 NΔ49) (Sesbania mosaic virus).
In test [2] the target is Sesbania mosaic virus movement protein, Gal4 DNA-binding domain fusion (pGBK T7 MP) (Sesbania mosaic virus).
Test [3] concerns the target SeMV MP CΔ38 deletion mutant, Gal4 DNA-binding domain fusion (pGBK T7) (Sesbania mosaic virus).

As for “Sesbania mosaic virus 10-kDa protein (P10), Gal4 activation domain fusion (pGAD T7 P10) (natural protein)”, the beta-galactosidase activity, percent of p53-TAg in test [1] worked out at 14%; in test [2], 97.1%.
In the case of “Sesbania mosaic virus coat protein (CP), Gal4 activation domain fusion (pGAD T7 CP) (natural protein)”, the beta-galactosidase activity, percent of p53-TAg in test [2] stood at 70%.
“Sesbania mosaic virus viral protein genome linked (VPg), Gal4 activation domain fusion (pGAD T7 VPg) (natural protein)”: the beta-galactosidase activity, percent of p53-TAg in test [3] was 83.1%; in test [2], 95.5%.
